Laboratory results: PMC11527256, “Linkage-specific ubiquitin binding interfaces modulate the activity of the chlamydial deubiquitinase Cdu1 towards poly-ubiquitin substrates” (PLOS Pathogens, 2024)

Biological target: T1, ubiquitin propargylamide (UB-PA) (UniProt P0CG48 1-75, C-terminal propargylamide)
T1 construct: also called ubiquitin-propargylamide suicide probe
Assay: NMR chemical shift perturbation of the covalent adduct against the apo protein
Conditions: both partners purified

B1: Cdu1(130-401), wildtype (enzyme)
chain: PVKTQEDLLPLVPEQVFVEMYEDMARRQTIEALVPAWDSDIIFKCLCYFHTLYPGLIPLETFPPATIFNFKQKIISILEDKKAVLRGEPIKGPLPICCSKENYRRHLQRTTLLPVFMWYHPTPKTLSDTMQTMKQLAIKGSVGASHWLLVIVDIQARRLVYFDSLYNYVMPPENMKKELQSFAQQLDQVYPAYDSKKFSVKIAAKEVIQRGSGSSCGAWCCQFLHWYLKDPLTDALNDLPVDSVERHENLASFVQACEAAVQDLPELSWPEA
notes: source: E. coli Rosetta 2(DE3), purified (Ni-NTA, 3C cleavage, SEC); not shown: 6xHis, N-terminal, cleaved
B1: binds.
